From patent US20240148890A1 (SUTRO BIOPHARMA, published 2024)

Molecular target: folate receptor alpha (FOLR1) (human, UniProt P15328 25-234)
Experiment: cell-based or functional assay

folate receptor alpha (FOLR1), sequence (P15328 25-234 limits assumed): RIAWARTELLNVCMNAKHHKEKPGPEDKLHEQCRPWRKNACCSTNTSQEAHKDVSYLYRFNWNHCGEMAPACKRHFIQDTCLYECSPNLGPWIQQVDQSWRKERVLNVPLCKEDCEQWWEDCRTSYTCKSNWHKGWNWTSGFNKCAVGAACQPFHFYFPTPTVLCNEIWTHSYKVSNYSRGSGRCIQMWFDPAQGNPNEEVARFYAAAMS

B1: Conjugate P (FOLR1-directed site-specific antibody-drug conjugate; IgG antibody with VH region SEQ ID NO: 362 and VL region SEQ ID NO: 367, conjugate formula … (antibody, V domains shown)
VH: EVQLVESGGGLVQPGGSLRLSCAASGFNIRTQSIHWVRQAPGKGLEWIGDIFPIDGITDYADSVKGRFTISADTSKNTAYLQMNSLRAEDTAVYYCARGSWSWPSGMDYYLDYWGQGTLVTVSS
VL: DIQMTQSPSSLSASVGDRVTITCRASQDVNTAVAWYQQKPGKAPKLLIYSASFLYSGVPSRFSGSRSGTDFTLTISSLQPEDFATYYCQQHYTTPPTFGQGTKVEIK
modifications: para-azidomethylphenylalanine residues substituting for Y180 and F404 (printed as 'of each VH region'; elsewhere given as heavy chain positions), each linked to the hemiasterlin linker-payload of conjugate formula P (n=4)
- in vitro cytotoxicity IC50 against CBF/GLIS-transduced CB HPSCs (which upregulate FOLR1): 4.2 nM
- in vitro cytotoxicity IC50 against MV4;11 AML cell line engineered to express FOLR1 (MV4;11 FOLR1+): 0.1 nM
